For experiment [1], the target named is T1, human BCMA on cells (human, UniProt Q02223 1-184).
T1 sequence (looked up): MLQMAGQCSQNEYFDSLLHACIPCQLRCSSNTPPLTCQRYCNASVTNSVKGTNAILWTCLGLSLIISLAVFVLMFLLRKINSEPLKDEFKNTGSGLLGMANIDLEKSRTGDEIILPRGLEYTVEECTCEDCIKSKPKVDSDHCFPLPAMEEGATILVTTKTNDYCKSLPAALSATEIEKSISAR
In words: cell-based or functional assay.

In experiment [2] the target is T2, recombinant human BCMA Fc 4-53 (human).
T2 construct: also called CD33-hBCMA ECD (4-53) TEV-Fc; recombinant BCMA coated on an ELISA plate
Briefly: competition ELISA, coated recombinant human BCMA Fc 4-53, blocked ligand recombinant human BAFF (6 ng/mL), biotinylated anti-BAFF detection [A]. As for the experimental part: 96 well flat bottomed plates were coated overnight with 1 μg/mL solution of recombinant human BCMA Fc 4-53 in PBS. Following a wash step using 0.05% TWEEN20, plates were blocked with 2% Bovine Serum Albumin solution in PBS for 1 hour at room temperature. […] 40 μL of 2% BSA was added to the relevant control wells. […] Equivalent volume of 2% BSA was added to the relevant control wells. Plates were allowed to incubate for 2 hours at room temperature, after which they were washed as before. […] Following a wash step, 50 μL of a 1:4000 dilution of Streptavidin-HRP (Amersham RPN4401) was added to each well and incubated for 30 minutes at room temperature. The wash process was repeated again followed by the addition of 100 μL of Tetramethylbenzidine substrate solution (T8665, Sigma) into each well. Plates were incubated for 20-25 minutes at room temperature, wrapped in foil. The reaction was stopped with the addition of 100 μL of 1M H₂SO₄. Optical density was determined at 450 nm using Spectromax reader.
In general terms: In an ELISA, binding on a coated surface is turned into a signal by an enzyme label.

Experiment [3] deals with T3, recombinant human BCMA (in house) (human, UniProt Q02223 4-53, limits assumed).
T3 construct: Analyte in the ProteOn runs; also called Human in house BCMA; In house human BCMA
T3 chain (looked up): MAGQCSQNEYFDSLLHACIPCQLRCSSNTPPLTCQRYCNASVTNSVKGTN
In words: SPR ProteOn XPR36, mAb captured on Protein A, 25C, run 2. As for the experimental part:
The initial screen of CA8 chimeric and humanised variants was carried out on the ProteOn XPR36 (Biorad). The method was as follows; Protein A was immobilised on a GLC chip (Biorad, Cat No: 176-5011) by primary amine coupling, CA8 variants were then captured on this surface and recombinant human BCMA (in house or commercial US Biological, B0410) materials (run 2 only)) passed over at 256, 64, 16, 4, 1 nM with a OnM injection (i.e. buffer alone) used to double reference the binding curves, the buffer used is the HBS-EP buffer. 50 mM NaOH was used to regenerate the capture surface. The data was fitted to the 1:1 model using the analysis software inherent to the ProteOn XPR36. […] Both runs were carried out at 25° C.

For experiment [4], the target named is T3, recombinant human BCMA (in house). Briefly: SPR ProteOn XPR36, mAb captured on Protein A, 25C, run 1.
For experiment [5], the target named is T4, cyno BCMA on HEK293 cells (cyno, UniProt A0A2K5UD97 1-183).
T4 construct: whole, on cells; also called cyno BCMA HEK293
T4 sequence (A0A2K5UD97 entry or part of it): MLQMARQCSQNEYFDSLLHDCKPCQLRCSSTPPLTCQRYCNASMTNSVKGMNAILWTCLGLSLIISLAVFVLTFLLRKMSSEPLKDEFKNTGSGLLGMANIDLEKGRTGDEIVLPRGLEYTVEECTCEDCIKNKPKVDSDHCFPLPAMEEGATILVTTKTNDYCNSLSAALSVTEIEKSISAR
In words: FMAT, HEK293 cells transfected with cyno BCMA, anti-human IgG FMAT Blue detection. As for the experimental part: (§1) Cryopreserved transfected human, cyno BCMA and mock transfected HEK293 cells were recovered from LN2 storage. […] The assay plates were left for a minimum of 90 minutes before the result was read on the AB18200 (FMAT) plate reader.

For experiment [6], the target named is T1, human BCMA on cells. Briefly: FMAT, HEK293 cells transfected with human BCMA, anti-human IgG FMAT Blue detection. As for the experimental part:
as §1

For orientation: EC50 (read off the curve) means the midpoint of the concentration-response curve. A higher EC50 (read off the curve) goes with a need for much substance.

B1: J6M0 potelligent (antibody, human IgG1, kappa, V domains shown)
VH: QVQLVQSGAEVKKPGSSVKVSCKASGGTFSNYWMHWVRQAPGQGLEWMGATYRGHSDTYYNQKFKGRVTITADKSTSTAYMELSSLRSEDTAVYYCARGAIYDGYDVLDNWGQGTLVTVSS
VL: DIQMTQSPSSLSASVGDRVTITCSASQDISNYLNWYQQKPGKAPKLLIYYTSNLHSGVPSRFSGSGSGTDFTLTISSLQPEDFATYYCQQYRKLPWTFGQGTKLEIKR
modifications: afucosylated (Potelligent) Fc glycan
notes: Same chains as J6M0, made in FUT8-deficient cells (afucosylated); human IgG1/kappa; also called J6M0 potelligent version; afucosylated (Potelligent) J6M0
On to B1, for which, in the experiment with human BCMA on cells [1], the “IC50 for inhibition of APRIL signalling (phosphorylated NFkappaB in washed H-929 cells, MSD assay)” value amounted to 2.43 µg/mL and the “IC50 for inhibition of BAFF signalling (phosphorylated NFkappaB in washed H-929 cells, MSD assay)” value came out at 0.91 µg/mL. Besides, the “IC50 (read off the curve)” value in experiment [2] is approximately 0.8 µg/mL.

B2: CA8 humanised J7M1 (antibody, human IgG1, kappa, V domains shown)
VH: QVQLVQSGAEVKKPGSSVKVSCKASGYTFTNYWMHWVRQAPGQGLEWMGATYRGHSDTYYNQKFKGRVTITADKSTSTAYMELSSLRSEDTAVYYCARGAIYDGYDVLDNWGQGTLVTVSS
VL: DIQMTQSPSSLSASVGDRVTITCSASQDISNYLNWYQQKPGKAPKLLIYYTSNLHSGVPSRFSGSGSGTDYTLTISSLQPEDFATYYCQQYRKLPWTFGQGTKLEIKR
notes: humanised, human IgG1/kappa
On to B2, for which, in experiment [3], the binding result is given as “binds”.

B3: CA8 humanised J8M1 (antibody, human IgG1, kappa, V domains shown)
VH: QVQLVQSGAEVKKPGSSVKVSCKASGYTFTNYWMHWVRQAPGQGLEWMGATYRGHSDTYYNQKFKGRVTITADKSTSTAYMELSSLRSEDTAVYYCTRGAIYDGYDVLDNWGQGTLVTVSS
VL: DIQMTQSPSSLSASVGDRVTITCSASQDISNYLNWYQQKPGKAPKLLIYYTSNLHSGVPSRFSGSGSGTDYTLTISSLQPEDFATYYCQQYRKLPWTFGQGTKLEIKR
notes: humanised, human IgG1/kappa
In the case of B3, the binding result in experiment [3] is recorded as “binds”.

B4: CA8 humanised J8M0 (antibody, human IgG1, kappa, V domains shown)
VH: QVQLVQSGAEVKKPGSSVKVSCKASGYTFTNYWMHWVRQAPGQGLEWMGATYRGHSDTYYNQKFKGRVTITADKSTSTAYMELSSLRSEDTAVYYCTRGAIYDGYDVLDNWGQGTLVTVSS
VL: DIQMTQSPSSLSASVGDRVTITCSASQDISNYLNWYQQKPGKAPKLLIYYTSNLHSGVPSRFSGSGSGTDFTLTISSLQPEDFATYYCQQYRKLPWTFGQGTKLEIKR
notes: humanised, human IgG1/kappa
As for B4, the binding result in experiment [3] was “binds”.

B5: S307118G03 humanised H4L1 (antibody, human IgG1, kappa, V domains shown)
VH: QVQLVQSGAEVKKPGSSVKVSCKASGYTFTDYYMKWVRQAPGQGLEWMGEIYPNNGGITYNQKFKGRVTITADKSTSTAYMELSSLRSEDTAVYYCADGYEFVYWGQGTLVTVSS
VL: DIQMTQSPSSLSASVGDRVTITCSASQGISNYLNWYQQKPGKAPKLLIYYTSSLHSGVPSRFSGSGSGTDYTLTISSLQPEDFATYYCQQYSKLPWTFGQGTKLEIKR
notes: humanised, human IgG1/kappa
B5: in experiment [4], the binding result is recorded as “no binding (tested: 256 nM (highest analyte concentration))”.

B6: CA8 humanised J7M2 (antibody, human IgG1, kappa, V domains shown)
VH: QVQLVQSGAEVKKPGSSVKVSCKASGYTFTNYWMHWVRQAPGQGLEWMGATYRGHSDTYYNQKFKGRVTITADKSTSTAYMELSSLRSEDTAVYYCARGAIYDGYDVLDNWGQGTLVTVSS
VL: DIQLTQSPSSLSASVGDRVTITCSASQDISNYLNWYQQKPGKAPELVIYYTSNLHSGVPSRFSGSGSGTDYTLTISSLQPEDFATYYCQQYRKLPWTFGQGTKLEIKR
notes: humanised, human IgG1/kappa
Regarding B6, in experiment [3], the binding result is “binds”.

B7: CA8 humanised J8M2 (antibody, human IgG1, kappa, V domains shown)
VH: QVQLVQSGAEVKKPGSSVKVSCKASGYTFTNYWMHWVRQAPGQGLEWMGATYRGHSDTYYNQKFKGRVTITADKSTSTAYMELSSLRSEDTAVYYCTRGAIYDGYDVLDNWGQGTLVTVSS
VL: DIQLTQSPSSLSASVGDRVTITCSASQDISNYLNWYQQKPGKAPELVIYYTSNLHSGVPSRFSGSGSGTDYTLTISSLQPEDFATYYCQQYRKLPWTFGQGTKLEIKR
notes: humanised, human IgG1/kappa
B7: the binding result in experiment [3] is “binds”.

B8: CA8 humanised J6M0 (antibody, human IgG1, kappa, V domains shown)
VH: QVQLVQSGAEVKKPGSSVKVSCKASGGTFSNYWMHWVRQAPGQGLEWMGATYRGHSDTYYNQKFKGRVTITADKSTSTAYMELSSLRSEDTAVYYCARGAIYDGYDVLDNWGQGTLVTVSS
VL: DIQMTQSPSSLSASVGDRVTITCSASQDISNYLNWYQQKPGKAPKLLIYYTSNLHSGVPSRFSGSGSGTDFTLTISSLQPEDFATYYCQQYRKLPWTFGQGTKLEIKR
notes: humanised, human IgG1/kappa; also called CA8 J6M0; humanised J6M0 (wild type)
Regarding B8, the “IC50 (read off the curve)” value in experiment [2] was approximately 0.8 µg/mL.

B9: CA8 humanised J7M0 (antibody, human IgG1, kappa, V domains shown)
VH: QVQLVQSGAEVKKPGSSVKVSCKASGYTFTNYWMHWVRQAPGQGLEWMGATYRGHSDTYYNQKFKGRVTITADKSTSTAYMELSSLRSEDTAVYYCARGAIYDGYDVLDNWGQGTLVTVSS
VL: DIQMTQSPSSLSASVGDRVTITCSASQDISNYLNWYQQKPGKAPKLLIYYTSNLHSGVPSRFSGSGSGTDFTLTISSLQPEDFATYYCQQYRKLPWTFGQGTKLEIKR
notes: humanised, human IgG1/kappa
As for B9, the binding result in experiment [3] was “binds”.

B10: CA8 humanised J9M2 (antibody, human IgG1, kappa, V domains shown)
VH: QVQLVQSGAEVKKPGSSVKVSCKGSGYTFTNYWMHWVRQAPGQGLEWIGATYRGHSDTYYNQKFKGRATLTADTSTSTAYMELSSLRSEDTAVYYCTRGAIYDGYDVLDNWGQGTLVTVSS
VL: DIQLTQSPSSLSASVGDRVTITCSASQDISNYLNWYQQKPGKAPELVIYYTSNLHSGVPSRFSGSGSGTDYTLTISSLQPEDFATYYCQQYRKLPWTFGQGTKLEIKR
notes: humanised, human IgG1/kappa
Regarding B10, the binding result in experiment [3] was “binds”.

B11: CA8 chimera (antibody, V domains shown)
VH: EVQLQQSGAVLARPGASVKMSCKGSGYTFTNYWMHWVKQRPGQGLEWIGATYRGHSDTYYNQKFKGKAKLTAVTSTSTAYMELSSLTNEDSAVYYCTRGAIYNGYDVLDNWGQGTLVTVSS
VL: DIQLTQTTSSLSASLGDRVTISCSASQDISNYLNWYQQKPDGTVELVIYYTSNLHSGVPSRFSGSGSGTDYSLTIGYLEPEDVATYYCQQYRKLPWTFGGGSKLEIKR
notes: also called chimeric CA8; human chimeric CA8
B11: the figures for the concentration for a half-maximal effect (EC50 (read off the curve)) (in experiment [5]; with human BCMA on cells [6]) were approximately 0.3 µg/mL and approximately 0.4 µg/mL, respectively.

These data come from patent US20140105915A1 (GlaxoSmithKline, published 2014).
